Measurements as given in the supplement of paper PMC9170038.

System: MS2 coat protein
Test: apparent KD of MS2 coat protein; designed switch direction (-1 OFF switch, 1 ON switch): 1; higher = weaker reporter binding
Procedure, shortened: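 Each step of the titration lasted 0.8–1.5 h at the lowest concentration and 10–20 min at the highest. The protein, SNAP-549-labelled MS2 coat protein, went from 0.7 or 1.5 nM doubling to 3 µM over RNA switches transcribed on Illumina chips by stalled E. coli RNA polymerase. Normalised cluster fluorescence was curve-fitted, and the per-design median over clusters is given as apparent KD.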

[1] = input ligand: microRNA oligo, concentration not stated
[2] = Eterna round: R95, input ligand: FMN 200 uM
[3] = Eterna round: R95, input ligand: microRNA oligo, concentration not stated
[4] = Eterna round: R95, input ligand: none

## GCGGAACCUAACAUGAGGAUCACCCAUGUUCCGGAAACGGCACAGGAUAUCUGUCCGAAAAGGUCAGAGAAGGGUGAAAACCGC [Fiskers NG3ss - 95] (Eterna round: R96, puzzle: Same State NG 3)
Input ligand: FMN 200 uM
  apparent KD of MS2 coat protein: 131 nM
[1]
  apparent KD of MS2 coat protein: 307 nM
Input ligand: none
  apparent KD of MS2 coat protein: 390 nM

## UUACUCAUGUAAGGAUAUGCAGCCGUUUCGGCUGCAGAAGGUACUAUAAUACAUGAGGAUCACCCAUGUCUUUUUAAUUUUUAC [JL SSNG1 1.28] (Eterna round: R96, puzzle: Same State NG 1)
Input ligand: FMN 200 uM
  apparent KD of MS2 coat protein: 87.5 nM
[1]
  apparent KD of MS2 coat protein: 24.4 nM
Input ligand: none
  apparent KD of MS2 coat protein: 54.2 nM

## ACAUGAGAGAAAGGAUAUCAUGUACCUACAUGUGACAUGAGGAUCACCCAUGUGGUAAGUAUGAGUGAGAAGGUUCAGAUAUGU [Equivalence 34 - Jieux - Same State NG 2] (Eterna round: R96, puzzle: Same State NG 2)
Input ligand: FMN 200 uM
  apparent KD of MS2 coat protein: 44.4 nM
[1]
  apparent KD of MS2 coat protein: 298 nM
Input ligand: none
  apparent KD of MS2 coat protein: 448 nM

## GGAGCCGGCCUAGGAUAUUUCAUAAUAAUACAUGAGGAUCACCCAUGUAGGCCAGAAGGCCUUGGGAAGAAGGAGGUCGGCUCC [Loop Effect - U26,U29] (Eterna round: R96, puzzle: Same State NG 2)
Input ligand: FMN 200 uM
  apparent KD of MS2 coat protein: 14.1 nM
[1]
  apparent KD of MS2 coat protein: 26 nM
Input ligand: none
  apparent KD of MS2 coat protein: 43.2 nM

## CGCGAACAGGCAGGAUAUAUAGAGCCAAAUAUUGUAGAAGGGCCACGUGCGGGAAGAGAACACAUGAGGAUCACCCAUGUUCGA [Eternabot solution 5] (Eterna round: R96, puzzle: Same State NG 1)
Input ligand: FMN 200 uM
  apparent KD of MS2 coat protein: 27.4 nM
[1]
  apparent KD of MS2 coat protein: 27.9 nM
Input ligand: none
  apparent KD of MS2 coat protein: 30.7 nM

## CGGCUCCGUGGAGGAUAUGGGCCUGCCCGGGAUAACGGGCCUAACACAUGAGGAUCACCCAUGUCCCAGAAGGCCGCUGGAGCC [Enineseson] (Eterna round: R96, puzzle: Same State NG 2)
Input ligand: FMN 200 uM
  apparent KD of MS2 coat protein: 14 nM
[1]
  apparent KD of MS2 coat protein: 39.1 nM
Input ligand: none
  apparent KD of MS2 coat protein: 54.4 nM

## ACAUGAGACCUAGGAUAUCUUGUACCUACAUGUGACAUGAGGAUCACCCAUGUGGUAAGUAUGAUAGAGAAGGAGGAGAUAUGU [Equivalance 55 - Jieux - Same State NG 2] (Eterna round: R96, puzzle: Same State NG 2)
Input ligand: FMN 200 uM
  apparent KD of MS2 coat protein: 15.6 nM
[1]
  apparent KD of MS2 coat protein: 39.8 nM
Input ligand: none
  apparent KD of MS2 coat protein: 51.9 nM

## GUUACAUGAGGAUCACCCAUGUAUGUGUGGGAGUAAGUGUCUUAGGAUAUCUGUUAUUUGAUUUAAGAGAAGGAAGAUUGUUGU [JMF's solution 40] (Eterna round: R96, puzzle: Same State NG 3)
Input ligand: FMN 200 uM
  apparent KD of MS2 coat protein: 123 nM
[1]
  apparent KD of MS2 coat protein: 78.4 nM
Input ligand: none
  apparent KD of MS2 coat protein: 92.8 nM

## AUUAUUAAUGCAGGAUAUGAUUAACAUGAGGAUCACCCAUGUGGUGUUGUGAGUAAGGAGAGUGAUCAGAAGGGCAUUUUUUUC [JMF's solution 20] (Eterna round: R96, puzzle: Same State NG 2)
Input ligand: FMN 200 uM
  apparent KD of MS2 coat protein: 672 nM
[1]
  apparent KD of MS2 coat protein: 369 nM
Input ligand: none
  apparent KD of MS2 coat protein: 399 nM

## AGCCGAAGCGCAGGAUAUACAUGCACACAUGAGGAUCACCCAUGUGGCAACACGUGGUAGUGAUUGUAGAAGGGUGCUCGGCGC [Omei SS(NG)2 Cv16] (Eterna round: R96, puzzle: Same State NG 2)
Input ligand: FMN 200 uM
  apparent KD of MS2 coat protein: 60.1 nM
[1]
  apparent KD of MS2 coat protein: 34.4 nM
Input ligand: none
  apparent KD of MS2 coat protein: 51 nM

## AGCUAUUACGAAGGAUAUUGUGACAUGAGGAUCACCCAUGUUUUCAUGAUUUAUUGUGAUCACGUCGAGAAGGUUGUACUAACA [SameState NG2 #29] (Eterna round: R96, puzzle: Same State NG 2)
Input ligand: FMN 200 uM
  apparent KD of MS2 coat protein: 59.2 nM
[1]
  apparent KD of MS2 coat protein: 50.8 nM
Input ligand: none
  apparent KD of MS2 coat protein: 51.8 nM

## AGGAAGGAGACUGAGGAUAUCGUAAGGAGGACAUGAGGAUCACCCAUGUGUAUAGGAUUGGAGGACGAGAAGGCAGAGGAGUGGG [JR_SS2_Sub048] (puzzle: Same State 2)
[2]
  apparent KD of MS2 coat protein: 29.7 nM
[3]
  apparent KD of MS2 coat protein: 19.7 nM
[4]
  apparent KD of MS2 coat protein: 26.5 nM

## GACAAUCUAUCUGAGGAUAUCAUGAAGAAAACAUGAGGAUCACCCAUGUGCAGGAGAACUGCAAAUGAGAAGGCAGAUAGAUUGG [Mat - Same State 2 - Mod - D2] (puzzle: Same State 2)
[2]
  apparent KD of MS2 coat protein: 8.71 nM
[3]
  apparent KD of MS2 coat protein: 13.1 nM
[4]
  apparent KD of MS2 coat protein: 20.4 nM

## GUGGUCAGACAUGAGGAUCACCCAUGUGGAAUAAAUAAGGAAAAGGAUAUGGAAUAUAGGAUAUACCAGAAGGUUUGGUUGGUG (Eterna round: R96, puzzle: Same State NG 3)
[1]
  apparent KD of MS2 coat protein: 83 nM

## AUACCAUCAGGAGGAUAUGGCACCUUAUUGGUGCCAGAAGGUCUAACAUGAGGAUCACCCAUGUGGGAGUGGUCUAAUGACCAC [Eli NG1ss - 86] (Eterna round: R96, puzzle: Same State NG 1)
Input ligand: FMN 200 uM
  apparent KD of MS2 coat protein: 73.7 nM
[1]
  apparent KD of MS2 coat protein: 72.3 nM
Input ligand: none
  apparent KD of MS2 coat protein: 91 nM

## GUAUCUACAGGUUGCAAUGCUCGUCGGAUACAUGAGGAUCACCCAUGUUAUAGCCCUGUGCUUGCGCAGGGCUGAUU [Sensor for hsa-mir-208a ( MOD of Tearor )] (puzzle: Sensor for hsa-mir-208a)
[2]
  apparent KD of MS2 coat protein: 46.8 nM
[3]
  apparent KD of MS2 coat protein: 39.4 nM
[4]
  apparent KD of MS2 coat protein: 49.5 nM

## AAAGAACAUGAGGAUCACCCAUGUGGAAGAGGCACAGGAUAUCACCUCGCAAGUGCAAGGUGAGAAGGGUGAUGAU [Islaonen] (puzzle: Same State 1)
[2]
  apparent KD of MS2 coat protein: 123 nM
[3]
  apparent KD of MS2 coat protein: 425 nM
[4]
  apparent KD of MS2 coat protein: 205 nM

## GAAAUAAUGAAAGGAUAUACAUGAGGAAUUCUCGUAGAAGGUUCAUGACAUGAGGAUCACCCAUGUAUCGCUCGAAAGAGCGAG [Mat - Same State NG 1 - JL mod - D31] (Eterna round: R96, puzzle: Same State NG 1)
Input ligand: FMN 200 uM
  apparent KD of MS2 coat protein: 510 nM
[1]
  apparent KD of MS2 coat protein: 152 nM
Input ligand: none
  apparent KD of MS2 coat protein: 64 nM

## GUAAAACAUGAGGAUCACCCAUGUCAACAAAGUCGAGGAUAUGGGCAAAUAAAAUAAGAACCAGAAGGCGAAUAAG [salish99_SS1_r3_009] (puzzle: Same State 1)
[2]
  apparent KD of MS2 coat protein: 44 nM
[3]
  apparent KD of MS2 coat protein: 703 nM
[4]
  apparent KD of MS2 coat protein: 1290 nM

## AGGCUCAGACUAGGAUAUAUGUGGUCACAUGAGGAUCACCCAUGUCUCGAGCUUCGGCUCGAGGCAUAGAAGGAGUCUGAGCCA [SSNG2/5-D1] (Eterna round: R96, puzzle: Same State NG 2)
Input ligand: FMN 200 uM
  apparent KD of MS2 coat protein: 459 nM
[1]
  apparent KD of MS2 coat protein: 14 nM
Input ligand: none
  apparent KD of MS2 coat protein: 713 nM
